How the values were obtained:
HeLa Kyoto [1] = assay: solubility in G1/S (NP-40 vs SDS abundance) (log2 ratio); higher = more soluble; conditions: cell cycle stage: G1/S
HeLa Kyoto [2] = assay: thermal stability score vs G1/S (z-score of summed log2 fold changes over temperatures); higher = more thermally stable than in G1/S
HeLa Kyoto [3] = assay: melting temperature (median over replicates), in situ; higher = more thermally stable
HeLa Kyoto [4] = assay: solubility change mitosis vs G1/S (difference of NP-40 vs SDS log2 ratios) (log2 ratio difference); higher = more soluble in mitosis
[5] = cell cycle stage: early G1 (4.5 h after nocodazole release)
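Wherever melting temperature (median over replicates), in situ is given: HeLa Kyoto cells synchronized by double thymidine or nocodazole block, proteins quantified by TMT10plex mass spectrometry, three independent biological replicates.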
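Wherever solubility change mitosis vs G1/S (difference of NP-40 vs SDS log2 ratios) is given: synchronized HeLa Kyoto cells (double thymidine block for G1/S, nocodazole release for mitosis), protein amounts in NP-40 versus SDS lysates quantified by mass spectrometry, three biological replicates.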
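Wherever solubility in G1/S (NP-40 vs SDS abundance) is given: HeLa Kyoto cells arrested at G1/S by double thymidine block, proteins quantified by TMT10plex mass spectrometry in mild NP-40 versus SDS extracts, three biological replicates.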
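Wherever thermal stability score vs G1/S (z-score of summed log2 fold changes over temperatures) is given: synchronized HeLa Kyoto cells, proteins quantified by TMT10plex mass spectrometry, three biological replicates, mitosis taken 0.5 h after nocodazole release, G1/S directly after double thymidine block.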

Chain of LSM3 (chain, as listed by the source): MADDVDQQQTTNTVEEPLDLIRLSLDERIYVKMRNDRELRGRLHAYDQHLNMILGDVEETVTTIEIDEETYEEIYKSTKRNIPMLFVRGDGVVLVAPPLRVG

| Substance | solubility in G1/S (log2) (HeLa Kyoto [1]) | thermal stability score (HeLa Kyoto [2]; [5]) | thermal stability score (HeLa Kyoto [2]; cell cycle stage: mitosis) | melting temperature (HeLa Kyoto [3]; cell cycle stage: G1/S) [°C] | melting temperature (HeLa Kyoto [3]; cell cycle stage: mitosis) [°C] | solubility change mitosis (log2) (HeLa Kyoto [4]) |
| --- | --- | --- | --- | --- | --- | --- |
| MWLKVGGLLRGTGGQLGQTVGWPCGALGPGPHRWGPCGGSWAQKFYQDGPGRGLGEEDIRRAREARPRKTPRPQLSDRSRERKVPASRISRLANFGGLAVGLGLGVLAEMAKKSMPGGRLQSEGGSGLDSSPFLSEANAERIVQTLCTVRGAALKVGQMLSIQDNSFISPQLQHIFERVRQSADFMPRWQMLRVLEEELGRDWQAKVASLEEVPFAAASIGQVHQGLLRDGTEVAVKIQYPGIAQSIQSDVQNLLAVLKMSAALPAGLFAEQSLQALQQELAWECDYRREAACAQNFRQLLANDPFFRVPAVVKELCTTRVLGMELAGGVPLDQCQGLSQDLRNQICFQLLTLCLRELFEFRFMQTDPNWANFLYDASSHQVTLLDFGASREFGTEFTDHYIEVVKAAADGDRDCVLQKSRDLKFLTGFETKAFSDAHVEAVMILGEPFATQGPYDFGSGETARRIQDLIPVLLRHRLCPPPEETYALHRKLAGAFLACAHLRAHIACRDLFQDTYHRYWASRQPDAATAGSLPTKGDSWVDPS [ADCK4] | 0.00454 | -0.115 | 0.518 | 50.7 | 49.8 | 0.0635 |
| MKMADAKQKRNEQLKRWIGSETDLEPPVVKRQKTKVKFDDGAVFLAACSSGDTDEVLKLLHRGADINYANVDGLTALHQACIDDNVDMVKFLVENGANINQPDNEGWIPLHAAASCGYLDIAEFLIGQGAHVGAVNSEGDTPLDIAEEEAMEELLQNEVNRQGVDIEAARKEEERIMLRDARQWLNSGHINDVRHAKSGGTALHVAAAKGYTEVLKLLIQAGYDVNIKDYDGWTPLHAAAHWGKEEACRILVDNLCDMEMVNKVGQTAFDVADEDILGYLEELQKKQNLLHSEKRDKKSPLIESTANMDNNQSQKTFKNKETLIIEPEKNASRIESLEQEKVDEEEEGKKDESSCSSEEDEEDDSESEAETDKTKPLASVTNANTSSTQAAPVAVTTPTVSSGQATPTSPIKKFPTTATKISPKEEERKDESPATWRLGLRKTGSYGALAEITASKEGQKEKDTAGVTRSASSPRLSSSLDNKEKEKDSKGTRLAYVAPTIPRRLASTSDIEEKENRDSSSLRTSSSYTRRKWEDDLKKNSSVNEGSTYHKSCSFGRRQDDLISSSVPSTTSTPTVTSAAGLQKSLLSSTSTTTKITTGSSSAGTQSSTSNRLWAEDSTEKEKDSVPTAVTIPVAPTVVNAAASTTTLTTTTAGTVSSTTEVRERRRSYLTPVRDEESESQRKARSRQARQSRRSTQGVTLTDLQEAEKTIGRSRSTRTREQENEEKEKEEKEKQDKEKQEEKKESETSREDEYKQKYSRTYDETYQRYRPVSTSSSTTPSSSLSTMSSSLYASSQLNRPNSLVGITSAYSRGITKENEREGEKREEEKEGEDKSQPKSIRERRRPREKRRSTGVSFWTQDSDENEQEQQSDTEEGSNKKETQTDSISRYETSSTSAGDRYDSLLGRSGSYSYLEERKPYSSRLEKDDSTDFKKLYEQILAENEKLKAQLHDTNMELTDLKLQLEKATQRQERFADRSLLEMEKRERRALERRISEMEEELKMLPDLKADNQRLKDENGALIRVISKLSK [PPP1R12A] | -0.42 | -1.62 | -0.382 | 50.4 | 50.2 | 0.0601 |
| MAQLGKLLKEQKYDRQLRLWGDHGQEALESAHVCLINATATGTEILKNLVLPGIGSFTIIDGNQVSGEDAGNNFFLQRSSIGKNRAEAAMEFLQELNSDVSGSFVEESPENLLDNDPSFFCRFTVVVATQLPESTSLRLADVLWNSQIPLLICRTYGLVGYMRIIIKEHPVIESHPDNALEDLRLDKPFPELREHFQSYDLDHMEKKDHSHTPWIVIIAKYLAQWYSETNGRIPKTYKEKEDFRDLIRQGILKNENGAPEDEENFEEAIKNVNTALNTTQIPSSIEDIFNDDRCINITKQTPSFWILARALKEFVAKEGQGNLPVRGTIPDMIADSGKYIKLQNVYREKAKKDAAAVGNHVAKLLQSIGQAPESISEKELKLLCSNSAFLRVVRCRSLAEEYGLDTINKDEIISSMDNPDNEIVLYLMLRAVDRFHKQQGRYPGVSNYQVEEDIGKLKSCLTGFLQEYGLSVMVKDDYVHEFCRYGAAEPHTIAAFLGGAAAQEVIKIITKQFVIFNNTYIYSGMSQTSATFQL [NAE1] | 0.0839 | 0.0621 | 0.146 | 51.5 | 51.3 | -0.191 |
| MGLQACLLGLFALILSGKCSYSPEPDQRRTLPPGWVSLGRADPEEELSLTFALRQQNVERLSELVQAVSDPSSPQYGKYLTLENVADLVRPSPLTLHTVQKWLLAAGAQKCHSVITQDFLTCWLSIRQAELLLPGAEFHHYVGGPTETHVVRSPHPYQLPQALAPHVDFVGGLHRFPPTSSLRQRPEPQVTGTVGLHLGVTPSVIRKRYNLTSQDVGSGTSNNSQACAQFLEQYFHDSDLAQFMRLFGGNFAHQASVARVVGQQGRGRAGIEASLDVQYLMSAGANISTWVYSSPGRHEGQEPFLQWLMLLSNESALPHVHTVSYGDDEDSLSSAYIQRVNTELMKAAARGLTLLFASGDSGAGCWSVSGRHQFRPTFPASSPYVTTVGGTSFQEPFLITNEIVDYISGGGFSNVFPRPSYQEEAVTKFLSSSPHLPPSSYFNASGRAYPDVAALSDGYWVVSNRVPIPWVSGTSASTPVFGGILSLINEHRILSGRPPLGFLNPRLYQQHGAGLFDVTRGCHESCLDEEVEGQGFCSGPGWDPVTGWGTPNFPALLKTLLNP [TPP1] | 0.472 | -0.723 | -1.17 | 53.8 | 53.9 | -0.0648 |
| MEVPAAGRVPAEGAPTAAVAEVRCPGPAPLRLLEWRVAAGAAVRIGSVLAVFEAAASAQSSGASQSRVASGGCVRPARPERRLRSERAGVVRELCAQPGQVVAPGAVLVRLEGCSHPVVMKGLCAECGQDLTQLQSKNGKQQVPLSTATVSMVHSVPELMVSSEQAEQLGREDQQRLHRNRKLVLMVDLDQTLIHTTEQHCQQMSNKGIFHFQLGRGEPMLHTRLRPHCKDFLEKIAKLYELHVFTFGSRLYAHTIAGFLDPEKKLFSHRILSRDECIDPFSKTGNLRNLFPCGDSMVCIIDDREDVWKFAPNLITVKKYVYFQGTGDMNAPPGSRESQTRKKVNHSRGTEVSEPSPPVRDPEGVTQAPGVEPSNGLEKPARELNGSEAATPRDSPRPGKPDERDIWPPAQAPTSSQELAGAPEPQGSCAQGGRVAPGQRPAQGATGTDLDFDLSSDSESSSESEGTKSSSSASDGESEGKRGRQKPKAAPEGAGALAQGSSLEPGRPAAPSLPGEAEPGAHAPDKEPELGGQEEGERDGLCGLGNGCADRKEAETESQNSELSGVTAGESLDQSMEEEEEEDTDEDDHLIYLEEILVRVHTDYYAKYDRYLNKEIEEAPDIRKIVPELKSKVLADVAIIFSGLHPTNFPIEKTREHYHATALGAKILTRLVLSPDAPDRATHLIAARAGTEKVLQAQECGHLHVVNPDWLWSCLERWDKVEEQLFPLRDDHTKAQRENSPAAFPDREGVPPTALFHPMPVLPKAQPGPEVRIYDSNTGKLIRTGARGPPAPSSSLPIRQEPSSFRAVPPPQPQMFGEELPDAQDGEQPGPSRRKRQPSMSETMPLYTLCKEDLESMDKEVDDILGEGSDDSDSEKRRPEEQEEEPQPRKPGTRRERTLGAPASSERSAAGGRGPRGHKRKLNEEDAASESSRESSNEDEGSSSEADEMAKALEAELNDLM [CTDP1] | 0.0911 | 1.52 | 2.78 | 49.2 | 50.6 | -0.102 |
| LSM3 | 0.0123 | -1.12 | -1.32 | 55.4 | 53.4 | 0.115 |
